We go through 59 variants from the MegaScale stability set (Tsuboyama et al. 2023).

Sequences and labels used below:
B1: EEHEE_rd4_0363 (parent)
chain: VTVDIKGMEYHFDNPEEAKKFAERMAKELGGELKVENGTLKVE

The variants in this data set derive from B1. The experiment in a line: folding stability dG (cDNA display proteolysis); higher = more stable. To be noted: PBS, room temperature.
Regarding VTVDIKGMEYHFDNPEEAKKFAWRMAKELGGELKVENGTLKVE [E23W], the “folding stability dG” value turned out to be 1.4 kcal/mol.

For the variant VTVDIKGMEYHFDNPEEAKKFALRMAKELGGELKVENGTLKVE [E23L], the “folding stability dG” value is 1.89 kcal/mol. On to VTVDIKGMEYHFDNPEEAKKFANRMAKELGGELKVENGTLKVE [E23N], for which the “folding stability dG” value turned out to be 0.999 kcal/mol. With VTVDIKGMEYHFDRPEEAKKFAERMAKELGGELKVENGTLKVE [N14R], the “folding stability dG” value was 1.15 kcal/mol. Consider VTVDIKGMEYHFDNPEEAKKFAERMAKELGMELKVENGTLKVE [G31M], for which the “folding stability dG” value came out at 2.32 kcal/mol. Consider VTVDIKGMEYHFDNPEEAKKFAERMAKELGAELKVENGTLKVE [G31A], for which the “folding stability dG” value is 2.15 kcal/mol. With VTVDIKGMEYHFDNPEEAKKFAERMAKELGGELKVENGWLKVE [T39W], the “folding stability dG” value stood at 1.66 kcal/mol. As to VTVDIKGMEYHFDNPEEAKKFAERMAKELGGELKVENGNLKVE [T39N], the “folding stability dG” value came to 1.84 kcal/mol.

For VTVDIKGMEYHFDNPEEAKKFAERMAKELGGELKVENGILKVE [T39I], the “folding stability dG” value turned out to be 2.81 kcal/mol. Consider VTVDIKGMEYHFDNPEEAKKFAERMAKELGGELKVENGDLKVE [T39D], for which the “folding stability dG” value came to 1.17 kcal/mol. The figure for VQVDIKGMEYHFDNPEEAKKFAERMAKELGGELKVENGTLKVE [T2Q] is 1.03 kcal/mol.

As to VLVDIKGMEYHFDNPEEAKKFAERMAKELGGELKVENGTLKVE [T2L], the “folding stability dG” value amounted to 1.81 kcal/mol. In the case of VTVDIKGMEYHFDNPEEAKKFAERMAKELGGELKVENGTLKYE [V42Y], the “folding stability dG” value was 0.816 kcal/mol. With VTVDIKGMEYHFDNPEEAHKFAERMAKELGGELKVENGTLKVE [K19H], the “folding stability dG” value was determined as 1.98 kcal/mol.

On to VTVDIKGMEYHFDNPEEAGKFAERMAKELGGELKVENGTLKVE [K19G], for which the “folding stability dG” value came out at 0.835 kcal/mol. On to VTVDIKGMEYHFDNPCEAKKFAERMAKELGGELKVENGTLKVE [E16C], for which the “folding stability dG” value worked out at 2.17 kcal/mol.

With VTVDIKGMEYHFDNPEEAKKFAERMAKELGGELKVGNGTLKVE [E36G], the “folding stability dG” value was determined as 1.61 kcal/mol. For VTVDIKRMEYHFDNPEEAKKFAERMAKELGGELKVENGTLKVE [G7R], the “folding stability dG” value came out at 0.237 kcal/mol. The figure for VTVDIKGMEYHFWNPEEAKKFAERMAKELGGELKVENGTLKVE [D13W] is 1.58 kcal/mol. Consider VTVDIKGMEYHFKNPEEAKKFAERMAKELGGELKVENGTLKVE [D13K], for which the “folding stability dG” value came to 1.82 kcal/mol.

On to VTVDIKGMEYHFINPEEAKKFAERMAKELGGELKVENGTLKVE [D13I], for which the “folding stability dG” value is 1.68 kcal/mol. Regarding VTVDIKGMEYHFDNPEEMKKFAERMAKELGGELKVENGTLKVE [A18M], the “folding stability dG” value was found to be 0.379 kcal/mol. As to VTVDIKGMEYHFDNPEEVKKFAERMAKELGGELKVENGTLKVE [A18V], the “folding stability dG” value is -0.372 kcal/mol.

As for VTVDIKGMEYHFDNKEEAKKFAERMAKELGGELKVENGTLKVE [P15K], the “folding stability dG” value was 1.45 kcal/mol. As for VTVDIKGMEYHFDNPEEAKKFAERMPKELGGELKVENGTLKVE [A26P], the “folding stability dG” value was -0.451 kcal/mol. Turning to VTVDIKGMEYHFDNPEEAKKFAERMTKELGGELKVENGTLKVE [A26T], the “folding stability dG” value worked out at 1.23 kcal/mol. For STVDIKGMEYHFDNPEEAKKFAERMAKELGGELKVENGTLKVE [V1S], the “folding stability dG” value stood at 1.45 kcal/mol. The figure for FTVDIKGMEYHFDNPEEAKKFAERMAKELGGELKVENGTLKVE [V1F] is 2.41 kcal/mol. For VTVDIKGMEYHFDNPEEAKKFAERMAKETGGELKVENGTLKVE [L29T], the “folding stability dG” value stood at 1.37 kcal/mol. In the case of VTVDIKGMEYHFDNPEEAKKFAERMAKEHGGELKVENGTLKVE [L29H], the “folding stability dG” value is 1.23 kcal/mol. For the variant VTVDIKGMEYHFDNPEEAKKFAERMAKELGGELKVENGTLKVF [E43F], the “folding stability dG” value was 2.75 kcal/mol.

As for VTVDIKGMEYHFDNPEEAKKFAERMAKELGGELKVENGTLKVY [E43Y], the “folding stability dG” value is 2.91 kcal/mol. Regarding VTVDIGGMEYHFDNPEEAKKFAERMAKELGGELKVENGTLKVE [K6G], the “folding stability dG” value came out at 2.68 kcal/mol. The same measure for VTVDITGMEYHFDNPEEAKKFAERMAKELGGELKVENGTLKVE [K6T]: 1.5 kcal/mol. VTVDIKGMEYHFDNPEEAKKFAERMASELGGELKVENGTLKVE [K27S]: the “folding stability dG” value is 1.81 kcal/mol. The same measure for VTVDIKGMEYHFDNPEEAKFFAERMAKELGGELKVENGTLKVE [K20F]: 1.62 kcal/mol; for VTVDIKGMEYHFDNPEEAKSFAERMAKELGGELKVENGTLKVE [K20S]: 1.95 kcal/mol. With VTVTIKGMEYHFDNPEEAKKFAERMAKELGGELKVENGTLKVE [D4T], the “folding stability dG” value was 2.85 kcal/mol. Turning to VTVDIKGMEYEFDNPEEAKKFAERMAKELGGELKVENGTLKVE [H11E], the “folding stability dG” value turned out to be 0.894 kcal/mol.

In the case of VTVDIKGMEYHFDNPEEAKKFAEEMAKELGGELKVENGTLKVE [R24E], the “folding stability dG” value was determined as 1.99 kcal/mol. For the variant VTVDIKGMEYHFDNPERAKKFAERMAKELGGELKVENGTLKVE [E17R], the “folding stability dG” value was 0.908 kcal/mol. As to VTVDIKGMEYHFDNPEAAKKFAERMAKELGGELKVENGTLKVE [E17A], the “folding stability dG” value was 1.7 kcal/mol.

On to VTVDIKGMEYHFDNPEEAKKFAERMAKELLGELKVENGTLKVE [G30L], for which the “folding stability dG” value was 1.34 kcal/mol. As to VTVDIKGMEYHFDNPEEAKKFAERMAKELAGELKVENGTLKVE [G30A], the “folding stability dG” value was determined as 1.43 kcal/mol. For the variant VTVDIKGMAYHFDNPEEAKKFAERMAKELGGELKVENGTLKVE [E9A], the “folding stability dG” value is 1.99 kcal/mol. The figure for VTVDIKGMEYHFDNPEEAKKFAERMAKELGGELKVENGTLSVE [K41S] is 1.45 kcal/mol; for VTVDIKGMEYHFDNPEEAKKFAERMAKELGGELKVENGTLIVE [K41I] it is 2.1 kcal/mol.

Consider VTVDIKGMEYHFDNPEEAKKFAERMAKVLGGELKVENGTLKVE [E28V], for which the “folding stability dG” value was found to be 1.88 kcal/mol. The same measure for VTVDIKGMEYHFDNPEEAKKFAERMAKPLGGELKVENGTLKVE [E28P]: 0.477 kcal/mol; for VTVDIKGMEYHFDNPEEAKKFAERMAKELGGELKVEVGTLKVE [N37V]: 1.14 kcal/mol; for VTVDIKGMEYHFDNPEEAKKFAERMAKELGGELKVEQGTLKVE [N37Q]: 1.46 kcal/mol. The figure for VTVDIKGEEYHFDNPEEAKKFAERMAKELGGELKVENGTLKVE [M8E] is 1.63 kcal/mol.

With VTVDIKGIEYHFDNPEEAKKFAERMAKELGGELKVENGTLKVE [M8I], the “folding stability dG” value came to 2.46 kcal/mol. The figure for VTVDIKGKEYHFDNPEEAKKFAERMAKELGGELKVENGTLKVE [M8K] is 2.44 kcal/mol; for VTVDIKGMEYHFDNPEEAKKFQERMAKELGGELKVENGTLKVE [A22Q] it is 0.746 kcal/mol; for VTVDIKGMEYHFDNPEEAKKFCERMAKELGGELKVENGTLKVE [A22C] it is 1.54 kcal/mol. Take VTVDIKGMEYHFDNPEEAKKFAERMAKELGGELKFENGTLKVE [V35F]: the “folding stability dG” value was determined as 2.38 kcal/mol. Consider VTVDIKGMEYHFDNPEEAKKFAERAAKELGGELKVENGTLKVE [M25A], for which the “folding stability dG” value is 1.37 kcal/mol. The figure for VTVDIKGMEYHFDNPEEAKKFAERSAKELGGELKVENGTLKVE [M25S] is 0.692 kcal/mol.
